Laboratory results published in US20060288448.
Positions count from the first letter of the chain named.

Key:
[1] = test system: T1, Cry8Bb1-K05 88 kDa polypeptide
T1 sequence: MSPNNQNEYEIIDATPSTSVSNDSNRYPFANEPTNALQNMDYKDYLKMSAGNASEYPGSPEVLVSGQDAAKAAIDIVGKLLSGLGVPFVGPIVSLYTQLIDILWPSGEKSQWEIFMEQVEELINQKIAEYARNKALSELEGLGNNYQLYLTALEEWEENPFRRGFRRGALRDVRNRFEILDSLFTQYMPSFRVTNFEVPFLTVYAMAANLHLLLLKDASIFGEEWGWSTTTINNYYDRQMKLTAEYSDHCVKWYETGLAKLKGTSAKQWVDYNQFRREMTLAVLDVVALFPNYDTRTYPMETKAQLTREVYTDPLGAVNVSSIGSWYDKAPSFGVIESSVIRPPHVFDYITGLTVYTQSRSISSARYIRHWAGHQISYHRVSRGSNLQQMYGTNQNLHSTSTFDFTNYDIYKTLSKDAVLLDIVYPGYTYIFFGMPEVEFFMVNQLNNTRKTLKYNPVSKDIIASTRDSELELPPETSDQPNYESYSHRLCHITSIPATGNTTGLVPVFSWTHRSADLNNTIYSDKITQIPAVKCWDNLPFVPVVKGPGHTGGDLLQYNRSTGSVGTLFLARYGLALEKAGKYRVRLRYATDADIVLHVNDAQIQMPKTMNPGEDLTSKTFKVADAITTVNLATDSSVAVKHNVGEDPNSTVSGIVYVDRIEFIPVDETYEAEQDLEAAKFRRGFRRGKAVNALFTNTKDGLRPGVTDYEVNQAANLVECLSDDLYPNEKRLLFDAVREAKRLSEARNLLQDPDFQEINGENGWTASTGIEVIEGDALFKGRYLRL

[2] = test system: T2, Cry8Bb1-ISC-1 88 kDa polypeptide
T2 sequence: T1 sequence with F161L, R162S, R163Q, G164S, F165L, R166S, R167Q, G168S

| Substance | proteolytic digestion for 72 h (SDS-PAGE, N-terminal sequencing) [1] | proteolytic digestion for 72 h (SDS-PAGE) [2] |
| --- | --- | --- |
| trypsin | Cry8Bb1-K05 was cleaved within the loop between helix 3 and 4 of domain I of the toxin molecule to generate a 55 kDa polypeptide | the 88 kDa Cry8Bb1-ISC-1 polypeptide was not cleaved within the activation loop to generate the 55 kDa polypeptide |
| chymotrypsin | Cry8Bb1-K05 was cleaved within the loop between helix 3 and 4 of domain I of the toxin molecule to generate a 55 kDa polypeptide | the 88 kDa Cry8Bb1-ISC-1 polypeptide was not cleaved within the activation loop to generate the 55 kDa polypeptide |
